Reference: PMC4885069
Several values for one entry are separate records, joined by “and”; a condition that tells them apart may be missing. Identical values can stand only once. Like-named read-outs stand apart in the source and are kept apart here.

Key:
[1] = molecular target: GST-hSV2C 455-579 (human synaptic vesicle glycoprotein 2C, luminal domain 4, GST fusion) (UniProt Q496J9); conditions: 25 °C, PBS (composition not given) at pH 7.3, 150 mM NaCl at pH 5.0
[2] = molecular target: GST-hSV2C 455-579 (human synaptic vesicle glycoprotein 2C, luminal domain 4, GST fusion) (UniProt Q496J9); assay: SPR (Biacore X100), kinetic evaluation; conditions: pH 7.3; 25 °C; PBS (composition not given) at pH 7.3; PBS (pH 7.3)
[3] = molecular target: synaptotagmin LD (Rattus norvegicus) (UniProt P29101); assay: ITC; conditions: cited from earlier work
Chain of UniProt P29101 (P29101 1-60): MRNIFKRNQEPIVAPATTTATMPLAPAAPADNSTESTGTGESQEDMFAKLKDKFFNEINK

Chain of UniProt Q496J9 (Q496J9 whole entry, the tested form may be a part): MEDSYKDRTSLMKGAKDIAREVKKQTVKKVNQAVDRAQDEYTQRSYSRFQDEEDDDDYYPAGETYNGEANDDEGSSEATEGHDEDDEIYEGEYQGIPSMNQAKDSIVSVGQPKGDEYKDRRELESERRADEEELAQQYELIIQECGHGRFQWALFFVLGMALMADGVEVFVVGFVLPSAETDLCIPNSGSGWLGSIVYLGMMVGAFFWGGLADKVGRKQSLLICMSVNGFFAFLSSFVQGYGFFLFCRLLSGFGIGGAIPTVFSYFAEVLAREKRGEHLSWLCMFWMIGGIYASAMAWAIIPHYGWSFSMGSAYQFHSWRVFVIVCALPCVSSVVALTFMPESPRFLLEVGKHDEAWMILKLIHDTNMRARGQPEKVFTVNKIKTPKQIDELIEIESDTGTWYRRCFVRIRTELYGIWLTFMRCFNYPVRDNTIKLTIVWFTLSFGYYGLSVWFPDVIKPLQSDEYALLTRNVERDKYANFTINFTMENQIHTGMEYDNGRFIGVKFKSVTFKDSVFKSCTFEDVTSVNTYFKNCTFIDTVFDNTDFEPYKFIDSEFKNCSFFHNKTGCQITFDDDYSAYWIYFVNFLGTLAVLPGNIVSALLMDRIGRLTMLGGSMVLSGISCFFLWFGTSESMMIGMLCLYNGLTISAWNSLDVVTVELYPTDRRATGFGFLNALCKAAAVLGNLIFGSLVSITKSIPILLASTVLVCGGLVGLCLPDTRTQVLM

Q: Which KD Steady State ([1]; pH 5.0) does the source give for “Botulinum neurotoxin serotype A HC fragment (HCA / HCAS), 50 kDa cell-binding domain” here?
A: > 1200 nM

Q: And the KD Steady State ([1]; pH 7.3)?
A: 400 nM

Q: And the KD Kinetics [2]?
A: 390 nM

Q: And the ka [2]?
A: 310000 M⁻¹ s⁻¹

Q: And the kd [2]?
A: 0.12 s⁻¹

Q: For BoNT/B (from UniProt P10844), which Kd [3] is on record?
A: 140 nM and 34 nM
